Some targets named below: BDBV sGP (BDBV (Bundibugyo ebolavirus)); BDBV GP (BDBV (Bundibugyo ebolavirus)); MARV GP.
What all share (test): ELISA
Experiment [1] addresses T1, EBOV GP (recombinant, full-length extracellular domain) (EBOV (Ebola Zaire), UniProt Q05320 33-650).
T1 chain: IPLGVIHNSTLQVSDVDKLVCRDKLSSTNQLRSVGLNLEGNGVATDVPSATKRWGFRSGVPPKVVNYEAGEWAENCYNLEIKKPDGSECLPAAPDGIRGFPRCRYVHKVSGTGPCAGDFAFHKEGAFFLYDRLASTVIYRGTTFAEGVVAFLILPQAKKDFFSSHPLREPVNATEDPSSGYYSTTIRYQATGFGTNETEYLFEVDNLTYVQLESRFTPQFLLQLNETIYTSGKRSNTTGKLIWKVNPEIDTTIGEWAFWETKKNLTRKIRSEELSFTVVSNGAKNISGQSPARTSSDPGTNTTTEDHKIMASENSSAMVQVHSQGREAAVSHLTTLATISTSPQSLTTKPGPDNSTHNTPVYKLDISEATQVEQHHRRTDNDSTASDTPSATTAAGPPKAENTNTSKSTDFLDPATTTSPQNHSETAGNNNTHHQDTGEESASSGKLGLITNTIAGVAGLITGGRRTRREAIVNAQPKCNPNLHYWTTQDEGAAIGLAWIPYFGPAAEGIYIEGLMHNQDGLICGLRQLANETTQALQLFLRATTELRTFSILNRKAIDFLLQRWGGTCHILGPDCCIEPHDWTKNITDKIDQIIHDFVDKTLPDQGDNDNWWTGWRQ

Another experiment deals with T2, SUDV GP (recombinant) (SUDV (Sudan ebolavirus), UniProt Q66814 33-650).
T2 chain: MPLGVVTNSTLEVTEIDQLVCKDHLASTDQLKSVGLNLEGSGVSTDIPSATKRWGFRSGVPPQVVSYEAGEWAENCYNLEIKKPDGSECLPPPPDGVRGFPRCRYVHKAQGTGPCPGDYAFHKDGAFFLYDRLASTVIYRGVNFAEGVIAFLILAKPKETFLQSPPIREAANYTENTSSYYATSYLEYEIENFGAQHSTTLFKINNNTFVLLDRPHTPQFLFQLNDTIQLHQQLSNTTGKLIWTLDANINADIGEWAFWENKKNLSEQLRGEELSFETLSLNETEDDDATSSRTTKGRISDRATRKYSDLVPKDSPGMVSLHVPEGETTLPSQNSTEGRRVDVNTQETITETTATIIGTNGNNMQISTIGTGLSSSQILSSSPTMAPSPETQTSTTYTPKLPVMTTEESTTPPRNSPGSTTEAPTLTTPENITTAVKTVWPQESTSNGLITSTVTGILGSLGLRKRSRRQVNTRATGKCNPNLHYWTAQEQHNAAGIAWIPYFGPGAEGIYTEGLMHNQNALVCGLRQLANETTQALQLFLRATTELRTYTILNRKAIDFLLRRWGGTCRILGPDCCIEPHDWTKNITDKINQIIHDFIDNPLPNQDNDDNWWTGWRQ

B1: 223 (antibody, V domains shown)
VH: QVQLQQWGAGLLKPSETLSLTCAVYGGSFTTTYWNWIRQPPGKGLEWIGEVNYSGNANYNPSLKGRVAISVDTSKNQFSLRLNSVTAADTAIYYCTSRIRSHIAYSWKGDVWGKGTTVTVSS
VL: EIVMTQSPGTLSLSPGERATLSCRASQSVPRNYIGWFQQKPGQAPRLLIYGASSRAAGFPDRFSGSGSGTDFTLTITRLEPEDFAMYYCHQYDRLPYTFGQGTKLEIK
For the molecule B1, the EC50 in the experiment with BDBV sGP was greater than 10 µg/mL; with BDBV GP, 0.022 µg/mL; in the experiment with MARV GP it was greater than 10 µg/mL.

B2: BDBV223 (antibody, V domains shown)
VH: QVQLQQWGAGLLKPSETLSLTCAVYGGSFTTTYWNWIRQPPGKGLEWIGEVNYSGNANYNPSLKGRVAISVDTSKNQFSLRLNSVTAADTAIYYCTSRIRSHIAYSWKGDVWGKGTTVTVSS
VL: EIVMTQSPGTLSLSPGERATLSCRASQSVPRNYIGWFQQKPGQAPRLLIYGASSRAAGFPDRFSGSGSGTDFTLTITRLEPEDFAMYYCHQYDRLPYTFGQGTKLEIK
As to B2, the EC50 stood at 0.024 µg/mL in experiment [1] and 0.106 µg/mL in the experiment with SUDV GP (recombinant).

B3: BDBV270 (antibody, V domains shown)
VH: QVQLQESGPGLVKPSQTLSLTCTVSGASISRGLYYWSWIRQPAGKGLEWIGRIYTSGSINYNPSLKSRVTISVDTSKNQFSLRLSSVIATDTAVYYCVRDAPWGDFLTGYFGFYGMDVWGQGTLVTVSS
VL: DIVMTQSPSSLSASVGDRVTITCRASQSINTYLNWYQQKPGKAPKFLIYAASSLHSGVPSRFSGSGSGTDFTLTINSLQPDDFATYYCQQSFTTPYTFGQGTKLEIK
Take B3: the values for the EC50 (in experiment [1]; with SUDV GP (recombinant)) were 0.173 µg/mL and 0.159 µg/mL, respectively.

B4: BDBV289 (antibody, V domains shown)
VH: QVQLVQSGAEVKKPGSSVKVSCKASGATFGSDTVTWVRQAPGQGLEWMGGIIPFFGEANYAQRFQGRVTITADKSTNTAYMELSSLRSEDTAVYFCARQINEMATFGEIHYYTYMDVWGQGTLVTVSS
VL: GSELTQDPAVSVALGQTVRITCQGDSLRNYYASWYQQKPRQAPVLVFYGKNNRPSGIPDRFSGSSSGNTASLTISGAQAEDEADYYCNSRDSSSNHLVFGGGTKLTVLS
B4: the EC50 was 0.029 µg/mL in experiment [1] and 0.103 µg/mL in the experiment with SUDV GP (recombinant).

B5: BDBV324 (antibody, V domains shown)
VH: QVQLVQSGAEVKKPGASVKVSCKTSGYTFTSFEIHWVRQGSGQGLEWMGRMNPKSGDTVSAQKFQGRVTLTRDTSINAAYMELGSLSSEDTAVYYCARGPHVGEVVPGLMAGTYYFPLDVWGQGTLVTVSS
VL: DIQMTQSPSTLSASIGDRVTITCRASQSISRWLAWYQQKPGKAPKLLIYKVSDLQSGVPSRFSGSGYGTEFTLTIGSLQPDDLATYYCQQYDTYPWTFGQGTKLEIK
With B5, the EC50 in experiment [1] was 0.131 µg/mL; in the experiment with SUDV GP (recombinant) it was 0.09 µg/mL.

The record behind these values is patent US20200200749A1 (published 2020).
